Among the data in patent US20060258607 are Kd values, retold here.

The target in the data set is biotinylated human D-ghrelin (octanoylated) (Homo sapiens) (UniProt Q9UBU3). Description: pulldown. The conditions noted are these: 37 C, 1 mM Ca/Mg, 47% active.
Chain of UniProt Q9UBU3 (Q9UBU3 24-51): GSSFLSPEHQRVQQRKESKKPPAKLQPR

On to “CGUGUGAGGCAAUAAAACUUAAGUCCGAAGGUAACCAAUCCUACACG [SOT-C (B11trc, D-RNA)]”, for which the Kd – broadly, the concentration at which binding is half-saturated – was 100 nM.
